From patent US20190219601A1 (RAMBAM MED TECH, published 2019)

What was measured:
[1] = biological target: lipidated recombinant human tissue factor (TF) (UniProt P13726); experiment: cell-based or functional assay
Target sequence in this assay (P13726 33-295 limits assumed): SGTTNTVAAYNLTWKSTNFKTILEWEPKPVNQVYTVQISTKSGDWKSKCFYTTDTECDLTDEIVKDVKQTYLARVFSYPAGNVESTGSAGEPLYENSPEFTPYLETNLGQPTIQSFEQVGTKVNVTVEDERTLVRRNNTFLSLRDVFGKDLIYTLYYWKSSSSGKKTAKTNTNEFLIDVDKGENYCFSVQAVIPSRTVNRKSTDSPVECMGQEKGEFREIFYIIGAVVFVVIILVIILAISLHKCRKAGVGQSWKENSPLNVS

[2] = biological target: lipidated recombinant human tissue factor (TF) (UniProt P13726)
Target sequence in this assay (P13726 33-295): as the sequence (P13726 33-295 limits assumed) above

[3] = biological target: lipidated recombinant human tissue factor (TF) (human, UniProt P13726 33-295, limits assumed); experiment: cell-based or functional assay

Molecule: enzymatically inactive heparanase (double mutant), mutated at Glu225 and Glu343 (from UniProt Q9Y251 36-543) (enzyme)
- factor Xa generation with conditioned medium of HEK-293 cells (chromogenic substrate; TF, factor VIIa, factor X) [1]: 2 fold

Molecule: recombinant active heparanase GS3 (single chain GS3 active heparanase gene construct comprising the 8 and 50 kDa heparanase subunits)
- factor Xa level (chromogenic substrate; purified TF, factor VIIa, factor X) [2]: Addition of heparanase induced 2 folds increase in Xa level
- thrombin generation (chromogenic substrate; TF, factor VIIa, factor X, prothrombin) [2]: Note a 3-fold increase in coagulation activity in the presence of heparanase.

Molecule: full-length human heparanase (65 kDa) (from UniProt Q9Y251 36-543) (enzyme)
- factor Xa generation with conditioned medium of HEK-293 cells (chromogenic substrate; TF, factor VIIa, factor X) [1]: 2 fold

B1: recombinant active heparanase GS3 (single chain GS3 active heparanase gene construct comprising the 8 and 50 kDa heparanase subunits) (enzyme)
chain: QDVVDLDFFTQEPLHLVSPSFLSVTIDANLATDPRFLILLGSPKLRTLARGLSPAYLRFGGTKTDFLIFDPKKESTFEERSYWQSQVNQDICKYGSIPPDVEEKLRLEWPYQEQLLLREHYQKKFKNSTYSRSSVDVLYTFANCSGLDLIFGLNALLRTADLQWNSSNAQLLLDYCSSKGYNISWELGNEPNSFLKKADIFINGSQLGEDFIQLHKLLRKSTFKNAKLYGPDVGQPRRKTAKMLKSFLKAGGEVIDSVTWHHYYLNGRTATKEDFLNPDVLDIFISSVQKVFQVVESTRPGKKVWLGETSSAYGGGAPLLSDTFAAGFMWLDKLGLSARMGIEVVMRQVFFGAGNYHLVDENFDPLPDYWLSLLFKKLVGTKVLMASVQGSKRRKLRVYLHCTNTDNPRYKEGDLTLYAINLHNVTKYLRLPYPFSNKQVDKYLLRPLGPHGLLSKSVQLNGLTLKMVDDQTLPPLMEKPLRPGSSLGLPAFSYSFFVIRNAKVAACI
- factor Xa generation at reduced TF levels (absorbance at 405 nm) [3]: 3 fold
- factor Xa generation with conditioned medium of HEK-293 cells (chromogenic substrate; TF, factor VIIa, factor X) [3]: 2 fold
